This note sets out measurements from paper PMC11109945.

Ends that are not written are not given here. * marks the point of attachment. Biotin = O=C1N[C@H]2[C@H](CS[C@H]2CCCCC(=O)*)N1

For this assay, the target named is T1, GST-WSB2 WDR (human).
T1 sequence (Q9NYS7 whole entry, looked up): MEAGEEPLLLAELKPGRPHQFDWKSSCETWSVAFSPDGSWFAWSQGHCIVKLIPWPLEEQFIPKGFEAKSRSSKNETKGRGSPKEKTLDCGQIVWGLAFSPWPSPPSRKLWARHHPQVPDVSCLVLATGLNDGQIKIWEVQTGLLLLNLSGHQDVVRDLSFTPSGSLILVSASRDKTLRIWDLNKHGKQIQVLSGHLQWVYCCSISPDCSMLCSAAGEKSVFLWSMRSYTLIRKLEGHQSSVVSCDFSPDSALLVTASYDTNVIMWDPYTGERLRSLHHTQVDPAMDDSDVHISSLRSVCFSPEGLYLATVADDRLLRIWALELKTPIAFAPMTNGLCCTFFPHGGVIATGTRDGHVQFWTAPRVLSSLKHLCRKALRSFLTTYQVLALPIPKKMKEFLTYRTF
As to the kind of experiment: pull-down + far-Western, overlay or dot blot; about 3 ug glutathione beads-bound GST-WSB2 WDR with 1.8 nmol biotin-labeled RelA peptide in 500 ul GST binding buffer, 4°C, 1 h; washed, eluted with 20 mM GSH, denatured, spotted on nitrocellulose; anti-biotin and anti-GST.

As to Biotin-TFKSIMK(Me)K(Me)SPFSG [biotin-labeled K314/315 monomethylated RelA peptide (a.a. 308-320)], the fold affinity against the unmethylated peptide was 3 to 4 fold.
